Where no end group is shown, it is not given here.

T1: Mpa residues 1-96 (Mpa1-96) (Mycobacterium tuberculosis, UniProt P9WQN5 1-96)
T1 sequence: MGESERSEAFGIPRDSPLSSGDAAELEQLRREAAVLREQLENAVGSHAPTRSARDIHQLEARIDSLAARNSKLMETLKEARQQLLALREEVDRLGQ

B1: Full-length prokaryotic ubiquitin-like protein, Pup1-64-GGQ with a C-terminal non-cleavable His6-tag (natural protein)
chain: MAQEQTKRGGGGGDDDDIAGSTAAGQERREKLTEETDDLLDEIDDVLEENAEDFVRAYVQKGGQ
B2: Mpa coiled-coil domain, residues 46-96 (Mpa46-96) (domain or fragment)
chain: SHAPTRSARDIHQLEARIDSLAARNSKLMETLKEARQQLLALREEVDRLGQ

Assay in all cases: […]
Assay [1] has as its target T1, Mpa residues 1-96 (Mpa1-96).
The target of assay [2] is B2.
The target in assay [3] is B1.

Take B1: the binding result in assay [1] was “binds”.
In the case of {His6‑tag}-STAAGQERREKLTEETDDLLDEIDDVLEENAEDFVRAYVQKGGE (domain or fragment, not fully specified) [N-terminal truncated prokaryotic ubiquitin-like protein, Pup21-64-GGE with an N-terminal His6-tag], the binding result in assay [2] is reported as “binds”.
As for B2, the binding result in assay [3] was “binds”.

These data come from article PMC2988878 (Nature structural & molecular biology, 2010).
